Results as given in the supplement of paper PMC10065799, “High-throughput profiling of sequence recognition by tyrosine kinases and SH2 domains using bacterial peptide display” (eLife, 2023).

Columns and labels:
SHP2-C SH2 = experiment: SH2 binding enrichment of the phosphorylated peptide, bacterial display (enrichment ratio); higher = better substrate or ligand; peptides without Tyr show the background
Grb2 SH2 = Grb2 SH2 (UniProt P62993); experiment: as above
c-Src SH2 = experiment: as above
MERTK = MERTK (UniProt Q12866); experiment: phosphorylation enrichment, bacterial display (enrichment ratio); higher = better substrate or ligand; peptides without Tyr show the background
AncSZ = experiment: as above
Jak2 = Jak2 (UniProt O60674); experiment: as above
Fyn = Fyn (UniProt P06241); experiment: as above
c-Abl (mouse) = experiment: as above
FGFR1 = FGFR1 (UniProt P11362); experiment: as above
Fer (mouse) = experiment: as above
EPHB1 = EPHB1 (UniProt P54762); experiment: as above
c-Src = experiment: as above
Fes = Fes (UniProt P07332); experiment: as above
Hck = Hck (UniProt P08631); experiment: as above
EPHB2 = EPHB2 (UniProt P29323); experiment: as above
FGFR3 = FGFR3 (UniProt P22607); experiment: as above
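Wherever SH2 binding enrichment of the phosphorylated peptide, bacterial display is given: peptide library displayed on the E. coli surface as eCPX fusions, selected cells deep-sequenced, score is each peptide's frequency after selection divided by its frequency in the input.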
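Wherever phosphorylation enrichment, bacterial display is given: 11-residue human phosphosite peptides and single-mutation variants displayed on the E. coli surface, counted by deep sequencing, each peptide's frequency after selection divided by its frequency in the unselected input library; frequency after pTyr selection over input frequency; kinase dosed for 20-30% of maximal phosphorylation in three min.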

Fyn, sequence (P06241 whole entry, looked up): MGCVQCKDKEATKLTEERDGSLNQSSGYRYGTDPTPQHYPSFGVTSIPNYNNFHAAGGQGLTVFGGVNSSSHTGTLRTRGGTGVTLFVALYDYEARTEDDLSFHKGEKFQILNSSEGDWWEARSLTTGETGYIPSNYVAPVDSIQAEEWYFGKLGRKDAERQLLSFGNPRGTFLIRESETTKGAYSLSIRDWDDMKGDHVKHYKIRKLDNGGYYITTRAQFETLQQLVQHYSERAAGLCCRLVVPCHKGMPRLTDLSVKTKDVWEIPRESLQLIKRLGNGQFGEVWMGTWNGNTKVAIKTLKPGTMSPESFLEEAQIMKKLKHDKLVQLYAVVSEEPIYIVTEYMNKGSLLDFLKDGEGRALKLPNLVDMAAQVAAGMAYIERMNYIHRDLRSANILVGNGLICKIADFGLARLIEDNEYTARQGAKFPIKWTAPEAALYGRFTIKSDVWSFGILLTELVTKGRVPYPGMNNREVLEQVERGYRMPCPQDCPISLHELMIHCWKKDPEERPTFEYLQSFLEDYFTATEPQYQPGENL
FGFR1, sequence (P11362 whole entry, looked up): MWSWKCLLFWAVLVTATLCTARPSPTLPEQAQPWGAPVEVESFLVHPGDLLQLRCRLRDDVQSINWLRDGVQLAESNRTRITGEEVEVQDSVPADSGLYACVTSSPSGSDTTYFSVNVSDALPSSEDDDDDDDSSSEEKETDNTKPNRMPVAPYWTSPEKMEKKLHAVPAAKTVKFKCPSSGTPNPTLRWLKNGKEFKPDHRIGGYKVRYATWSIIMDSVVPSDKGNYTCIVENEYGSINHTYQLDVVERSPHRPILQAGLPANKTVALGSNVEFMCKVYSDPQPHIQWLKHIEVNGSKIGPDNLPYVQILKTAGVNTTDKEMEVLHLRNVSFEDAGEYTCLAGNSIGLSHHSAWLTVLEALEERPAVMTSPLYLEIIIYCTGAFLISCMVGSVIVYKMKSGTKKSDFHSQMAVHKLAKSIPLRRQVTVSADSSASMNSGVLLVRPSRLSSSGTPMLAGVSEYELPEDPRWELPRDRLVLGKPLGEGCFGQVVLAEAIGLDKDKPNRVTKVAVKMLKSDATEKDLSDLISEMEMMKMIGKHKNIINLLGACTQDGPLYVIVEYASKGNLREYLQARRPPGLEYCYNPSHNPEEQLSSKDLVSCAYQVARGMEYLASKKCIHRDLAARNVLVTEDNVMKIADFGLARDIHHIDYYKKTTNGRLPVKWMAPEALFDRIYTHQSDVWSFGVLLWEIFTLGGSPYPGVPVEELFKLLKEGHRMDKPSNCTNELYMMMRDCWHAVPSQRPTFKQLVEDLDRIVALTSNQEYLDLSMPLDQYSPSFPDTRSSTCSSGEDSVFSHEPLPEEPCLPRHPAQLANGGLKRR
Jak2, sequence (O60674 whole entry, looked up): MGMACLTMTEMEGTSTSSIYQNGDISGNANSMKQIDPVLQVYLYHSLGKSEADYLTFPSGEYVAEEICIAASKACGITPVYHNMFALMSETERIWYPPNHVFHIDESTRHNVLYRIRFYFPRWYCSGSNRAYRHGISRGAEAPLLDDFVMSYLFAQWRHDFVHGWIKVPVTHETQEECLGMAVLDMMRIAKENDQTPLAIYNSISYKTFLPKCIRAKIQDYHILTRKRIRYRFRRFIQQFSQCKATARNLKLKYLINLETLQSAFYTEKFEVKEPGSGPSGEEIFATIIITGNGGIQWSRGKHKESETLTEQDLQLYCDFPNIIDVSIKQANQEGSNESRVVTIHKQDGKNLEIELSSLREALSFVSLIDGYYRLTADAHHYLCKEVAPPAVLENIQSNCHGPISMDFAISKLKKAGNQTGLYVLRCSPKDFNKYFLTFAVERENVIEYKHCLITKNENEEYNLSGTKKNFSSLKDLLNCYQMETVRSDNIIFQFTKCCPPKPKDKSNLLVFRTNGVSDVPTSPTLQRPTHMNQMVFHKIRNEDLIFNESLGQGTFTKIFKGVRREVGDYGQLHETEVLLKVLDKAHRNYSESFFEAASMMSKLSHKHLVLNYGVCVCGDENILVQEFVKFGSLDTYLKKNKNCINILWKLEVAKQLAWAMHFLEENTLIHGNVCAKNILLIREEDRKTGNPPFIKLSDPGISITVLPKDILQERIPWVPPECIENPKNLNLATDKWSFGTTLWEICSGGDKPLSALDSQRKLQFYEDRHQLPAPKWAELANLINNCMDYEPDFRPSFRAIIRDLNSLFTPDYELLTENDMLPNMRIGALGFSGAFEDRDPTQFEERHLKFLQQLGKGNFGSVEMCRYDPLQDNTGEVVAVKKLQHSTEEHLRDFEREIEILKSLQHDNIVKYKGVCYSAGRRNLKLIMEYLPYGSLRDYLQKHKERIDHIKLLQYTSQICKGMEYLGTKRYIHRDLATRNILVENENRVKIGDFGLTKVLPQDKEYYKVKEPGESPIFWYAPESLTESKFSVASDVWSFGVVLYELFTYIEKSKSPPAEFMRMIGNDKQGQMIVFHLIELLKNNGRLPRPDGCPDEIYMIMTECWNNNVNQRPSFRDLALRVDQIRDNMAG
MERTK, sequence (Q12866 whole entry, looked up): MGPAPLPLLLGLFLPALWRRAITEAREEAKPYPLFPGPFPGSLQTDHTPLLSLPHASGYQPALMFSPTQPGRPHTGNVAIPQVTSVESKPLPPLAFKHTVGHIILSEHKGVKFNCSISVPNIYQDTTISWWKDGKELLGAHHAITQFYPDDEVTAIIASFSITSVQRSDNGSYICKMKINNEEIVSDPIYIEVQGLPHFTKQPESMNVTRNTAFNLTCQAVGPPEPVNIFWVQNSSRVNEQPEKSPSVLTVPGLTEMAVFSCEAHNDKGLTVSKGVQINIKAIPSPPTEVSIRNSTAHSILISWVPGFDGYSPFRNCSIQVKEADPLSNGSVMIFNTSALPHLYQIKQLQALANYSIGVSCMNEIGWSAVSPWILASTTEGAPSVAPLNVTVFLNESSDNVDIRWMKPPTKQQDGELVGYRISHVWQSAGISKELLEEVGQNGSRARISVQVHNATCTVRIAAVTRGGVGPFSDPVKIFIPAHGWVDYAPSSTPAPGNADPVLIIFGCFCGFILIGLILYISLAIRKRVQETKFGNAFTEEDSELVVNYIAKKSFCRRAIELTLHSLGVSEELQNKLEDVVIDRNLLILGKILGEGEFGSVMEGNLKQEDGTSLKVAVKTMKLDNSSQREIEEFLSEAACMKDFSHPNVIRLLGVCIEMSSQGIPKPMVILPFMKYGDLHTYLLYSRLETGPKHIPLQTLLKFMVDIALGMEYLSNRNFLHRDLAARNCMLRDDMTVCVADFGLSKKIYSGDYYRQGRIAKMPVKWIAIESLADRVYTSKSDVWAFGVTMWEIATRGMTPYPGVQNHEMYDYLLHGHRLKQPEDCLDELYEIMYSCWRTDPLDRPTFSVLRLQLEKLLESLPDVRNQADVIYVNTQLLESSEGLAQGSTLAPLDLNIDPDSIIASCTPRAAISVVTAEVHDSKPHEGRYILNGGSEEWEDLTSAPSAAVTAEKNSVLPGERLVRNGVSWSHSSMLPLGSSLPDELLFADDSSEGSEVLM
Hck, sequence (P08631 whole entry, looked up): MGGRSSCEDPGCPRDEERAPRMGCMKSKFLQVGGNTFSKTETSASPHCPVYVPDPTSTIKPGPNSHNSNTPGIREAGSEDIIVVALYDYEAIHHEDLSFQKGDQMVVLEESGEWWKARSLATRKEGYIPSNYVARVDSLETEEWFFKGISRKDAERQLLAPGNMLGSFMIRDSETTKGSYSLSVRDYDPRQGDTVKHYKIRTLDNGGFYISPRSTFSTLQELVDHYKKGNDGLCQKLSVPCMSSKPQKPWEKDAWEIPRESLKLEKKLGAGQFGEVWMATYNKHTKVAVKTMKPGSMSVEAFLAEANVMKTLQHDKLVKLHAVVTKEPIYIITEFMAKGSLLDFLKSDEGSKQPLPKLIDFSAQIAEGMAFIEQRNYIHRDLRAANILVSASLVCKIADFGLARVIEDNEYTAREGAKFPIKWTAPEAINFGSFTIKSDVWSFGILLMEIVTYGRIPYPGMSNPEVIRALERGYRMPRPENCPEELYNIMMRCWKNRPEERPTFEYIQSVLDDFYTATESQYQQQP
Grb2 SH2, sequence (P62993 whole entry, looked up): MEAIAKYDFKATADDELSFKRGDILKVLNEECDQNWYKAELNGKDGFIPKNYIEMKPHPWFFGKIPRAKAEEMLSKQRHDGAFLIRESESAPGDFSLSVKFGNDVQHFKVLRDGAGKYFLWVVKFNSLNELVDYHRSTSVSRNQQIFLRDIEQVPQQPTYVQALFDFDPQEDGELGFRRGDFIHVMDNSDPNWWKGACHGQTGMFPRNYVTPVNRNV
FGFR3, sequence (P22607 whole entry, looked up, the tested form may be a part): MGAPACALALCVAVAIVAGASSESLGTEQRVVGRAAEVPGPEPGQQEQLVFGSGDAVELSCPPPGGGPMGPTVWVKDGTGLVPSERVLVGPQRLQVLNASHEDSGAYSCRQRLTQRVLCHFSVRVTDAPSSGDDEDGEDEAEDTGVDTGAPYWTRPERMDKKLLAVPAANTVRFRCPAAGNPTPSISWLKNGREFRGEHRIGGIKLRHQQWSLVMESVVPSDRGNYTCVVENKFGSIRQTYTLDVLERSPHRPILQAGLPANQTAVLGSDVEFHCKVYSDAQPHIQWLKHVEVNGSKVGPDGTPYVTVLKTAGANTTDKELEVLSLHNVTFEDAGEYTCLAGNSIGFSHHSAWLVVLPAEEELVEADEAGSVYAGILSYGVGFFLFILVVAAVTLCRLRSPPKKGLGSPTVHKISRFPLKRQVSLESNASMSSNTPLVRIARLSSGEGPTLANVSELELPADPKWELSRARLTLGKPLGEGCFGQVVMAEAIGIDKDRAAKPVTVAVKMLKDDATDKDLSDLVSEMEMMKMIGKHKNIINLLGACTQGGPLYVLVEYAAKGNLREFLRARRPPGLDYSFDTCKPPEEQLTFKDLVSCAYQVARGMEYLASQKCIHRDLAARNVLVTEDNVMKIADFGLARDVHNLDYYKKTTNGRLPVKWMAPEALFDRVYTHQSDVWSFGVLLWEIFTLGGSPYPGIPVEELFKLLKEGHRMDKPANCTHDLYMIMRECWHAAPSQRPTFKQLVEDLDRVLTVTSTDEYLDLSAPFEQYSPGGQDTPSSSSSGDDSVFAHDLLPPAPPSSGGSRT

| Sequence | SH2 binding enrichment (SHP2-C SH2) | SH2 binding enrichment (Grb2 SH2) | SH2 binding enrichment (c-Src SH2) | phosphorylation enrichment (MERTK) | phosphorylation enrichment (AncSZ) | phosphorylation enrichment (Jak2) | phosphorylation enrichment (Fyn) | phosphorylation enrichment (c-Abl (mouse)) | phosphorylation enrichment (FGFR1) | phosphorylation enrichment (Fer (mouse)) | phosphorylation enrichment (EPHB1) | phosphorylation enrichment (c-Src) | phosphorylation enrichment (Fes) | phosphorylation enrichment (Hck) | phosphorylation enrichment (EPHB2) | phosphorylation enrichment (FGFR3) |
| --- | --- | --- | --- | --- | --- | --- | --- | --- | --- | --- | --- | --- | --- | --- | --- | --- |
| YYSSEYHYVGG [CTSC_Y345] | 1.13 | 0.929 | 1.98 | 12.1 | 6.21 | 7.76 | 5 | 12.8 | 17.4 | 4.51 | 15.5 | 4.92 | 0.945 | 6.11 | 17.6 | 16.1 |
| RSPLRYTSILT [OR51B6_Y130] | 3.94 | 1.67 | 2.87 | 0.392 | 0.679 | 0.655 | 0.64 | 0.632 | 0.536 | 0.492 | 0.426 | 0.392 | 0.843 | 0.443 | 0.532 | 0.431 |
| MIRSTYALGGL [CPS1_Y590_A589T] | 0.626 | 0.699 | 0.439 | 0.488 | 0.63 | 0.73 | 0.466 | 0.498 | 0.774 | 0.489 | 0.4 | 0.546 | 0.693 | 0.487 | 0.521 | 0.486 |
| YSQNICIQNRN [PKP2_Y631_Y631C] | 0.619 | 0.7 | 0.56 | 0.49 | 0.874 | 0.777 | 0.415 | 0.663 | 0.524 | 0.498 | 0.529 | 0.432 | 1.01 | 0.501 | 0.503 | 0.641 |
| VNYGAYINNFK [GLB1_Y488_D491N] | 1.2 | 1.54 | 1.72 | 0.429 | 0.677 | 0.932 | 0.76 | 0.483 | 0.453 | 0.423 | 0.743 | 0.876 | 0.723 | 0.631 | 1.17 | 0.513 |
| DEEEEYEFMNR [ERBB3_Y1197_D1194E_YF] | 0.747 | 0.946 | 0.637 | 0.462 | 1.16 | 0.903 | 0.512 | 1.1 | 0.572 | 0.485 | 0.62 | 0.527 | 1.07 | 0.522 | 0.76 | 0.779 |
| FIRRDYEACKA [BBS4_Y48_K46R_YF] | 1.01 | 0.918 | 0.682 | 0.4 | 0.761 | 0.573 | 0.525 | 0.549 | 0.45 | 0.434 | 0.514 | 0.616 | 0.758 | 0.442 | 0.59 | 0.494 |
| EHLNRYISDTF [TTLL10_Y446] | 0.652 | 0.9 | 0.462 | 0.393 | 0.737 | 0.535 | 0.434 | 0.655 | 0.428 | 0.434 | 0.44 | 0.42 | 0.641 | 0.51 | 0.473 | 0.567 |
| LQRCKYSHMEP [TEX45_Y434] | 1.1 | 0.64 | 0.78 | 0.614 | 1.21 | 1.5 | 0.375 | 1.16 | 0.663 | 0.582 | 0.513 | 0.982 | 1.35 | 0.672 | 0.876 | 0.957 |
| CTLLPYFSARV [DGKE_Y269_YF] | 0.711 | 0.791 | 0.523 | 0.424 | 0.987 | 1.09 | 0.453 | 1.11 | 0.518 | 0.515 | 0.613 | 0.43 | 1.11 | 0.508 | 0.615 | 0.736 |
| DALDNYVIRGV [PCCA_Y473] | 0.556 | 0.649 | 0.453 | 0.408 | 0.849 | 0.846 | 0.457 | 0.633 | 0.486 | 0.481 | 0.512 | 0.504 | 0.842 | 0.46 | 0.583 | 0.506 |
| VSTAVYKRFPS [BEST1_Y148] | 0.647 | 0.748 | 0.414 | 0.526 | 0.512 | 0.593 | 0.379 | 0.668 | 0.498 | 0.395 | 0.348 | 0.395 | 0.733 | 0.426 | 0.382 | 0.463 |
| EVTRLYGSVCD [TC2N_Y154_K151T] | 0.379 | 1.11 | 0.503 | 0.727 | 1.18 | 1.27 | 3.63 | 0.895 | 0.557 | 0.982 | 0.708 | 2.77 | 1.29 | 2.02 | 0.586 | 0.783 |
| MTRDIYRASFF [ALK_Y1278_A1274T_YF] | 0.563 | 0.811 | 0.529 | 0.464 | 0.657 | 0.621 | 0.587 | 4.15 | 0.572 | 0.386 | 0.519 | 0.592 | 0.73 | 0.89 | 0.462 | 0.677 |
| KLYRVYCDMNT [FGB_Y269_P265L] | 0.715 | 0.868 | 1.22 | 0.466 | 0.978 | 0.838 | 0.608 | 0.696 | 0.452 | 0.52 | 0.769 | 0.549 | 1.07 | 0.623 | 0.702 | 0.693 |
| MEYAKYGSLRG [RET_Y809_V804M] | 0.607 | 0.703 | 0.484 | 0.436 | 0.622 | 0.536 | 1.14 | 0.474 | 0.461 | 0.431 | 0.569 | 1.9 | 0.605 | 1.29 | 0.465 | 0.458 |
| NALVQYQEMEK [BBS4_Y395_A393V] | 0.745 | 1.04 | 4.65 | 0.459 | 0.978 | 1.02 | 0.53 | 0.62 | 0.562 | 0.509 | 0.507 | 0.507 | 1.02 | 0.569 | 0.503 | 0.721 |

| Sequence | SH2 binding enrichment (SHP2-C SH2) | SH2 binding enrichment (Grb2 SH2) | SH2 binding enrichment (c-Src SH2) | phosphorylation enrichment (MERTK) | phosphorylation enrichment (AncSZ) | phosphorylation enrichment (Jak2) | phosphorylation enrichment (Fyn) | phosphorylation enrichment (c-Abl (mouse)) | phosphorylation enrichment (FGFR1) | phosphorylation enrichment (Fer (mouse)) | phosphorylation enrichment (EPHB1) | phosphorylation enrichment (c-Src) | phosphorylation enrichment (Fes) | phosphorylation enrichment (Hck) | phosphorylation enrichment (EPHB2) | phosphorylation enrichment (FGFR3) |
| --- | --- | --- | --- | --- | --- | --- | --- | --- | --- | --- | --- | --- | --- | --- | --- | --- |
| IEPCIYIPEDD [XPNPEP3_Y455_G453C] | 0.821 | 1.2 | 0.719 | 0.428 | 1.23 | 1.25 | 0.563 | 0.862 | 0.738 | 0.6 | 0.648 | 0.513 | 1.47 | 0.696 | 0.603 | 0.87 |
| FSVDSYDSSVR [KCNQ1_Y461_G460S] | 0.865 | 1.02 | 0.718 | 0.406 | 0.734 | 0.693 | 0.474 | 0.523 | 0.44 | 0.498 | 0.451 | 0.474 | 1.39 | 0.47 | 0.87 | 0.548 |
| ETWHNYHKFDS [MATR3_Y243_S240W] | 0.791 | 0.865 | 2.09 | 0.458 | 0.7 | 0.71 | 0.468 | 0.48 | 0.942 | 0.395 | 0.799 | 0.439 | 0.755 | 0.448 | 0.605 | 0.732 |
| MMVGAYSSLEG [ECPAS_Y470_T472S] | 0.77 | 0.82 | 7.6 | 1.97 | 0.631 | 0.563 | 0.533 | 0.785 | 0.514 | 0.528 | 0.469 | 0.671 | 0.754 | 0.832 | 0.434 | 0.515 |
| TLNHQYDFTFH [CSNK1A1_Y292_D297H_YF] | 0.717 | 1.01 | 4.74 | 0.557 | 1.02 | 0.738 | 0.588 | 0.735 | 0.557 | 0.685 | 0.759 | 0.58 | 1.17 | 0.559 | 0.624 | 0.785 |
| VVAHHYSFAPD [TNS3_Y601_Q600H] | 1.43 | 0.781 | 2.22 | 0.593 | 0.646 | 0.707 | 0.532 | 0.583 | 0.683 | 0.499 | 0.426 | 0.643 | 0.882 | 0.453 | 0.502 | 0.674 |
| SHPSSYTTHPQ [NIPBL_Y195] | 0.723 | 0.728 | 0.477 | 0.463 | 0.412 | 0.492 | 0.441 | 0.417 | 0.459 | 0.467 | 0.362 | 0.478 | 0.82 | 0.46 | 0.384 | 0.404 |
| KTNVSYCGALD [CACNB4_Y103] | 0.726 | 0.9 | 0.551 | 0.389 | 0.778 | 0.754 | 0.381 | 0.745 | 0.494 | 0.46 | 0.564 | 0.469 | 0.834 | 0.503 | 0.508 | 0.643 |
| WQQQSYLDSGI [CTNNB1_Y30] | 0.649 | 0.726 | 0.571 | 0.418 | 0.75 | 0.758 | 0.388 | 0.568 | 0.479 | 0.428 | 0.489 | 0.38 | 0.847 | 0.407 | 0.433 | 0.597 |
| MKGDFYRFLAE [YWHAG_Y131_YF] | 0.36 | 0.706 | 0.479 | 0.734 | 0.803 | 0.845 | 0.429 | 0.596 | 0.448 | 0.426 | 0.497 | 0.448 | 0.798 | 0.349 | 0.494 | 0.49 |
| SFCFRYCCAAR [SUMF1_Y344_R345C_YF] | 0.764 | 1.02 | 0.755 | 0.445 | 1.25 | 1.02 | 0.487 | 0.7 | 0.504 | 0.517 | 0.659 | 0.397 | 1.23 | 0.436 | 0.611 | 0.723 |
| VGSIEYLKREW [KCNMA1_Y885] | 1.06 | 0.977 | 0.473 | 0.38 | 0.823 | 0.927 | 0.359 | 0.488 | 0.523 | 0.447 | 0.35 | 0.446 | 0.967 | 0.511 | 0.487 | 0.612 |
| RSRSSYTHGLN [MYCT1_Y116] | 0.917 | 0.779 | 0.593 | 0.883 | 1.42 | 0.916 | 0.956 | 0.981 | 0.588 | 0.705 | 1 | 1.23 | 1.35 | 0.935 | 0.882 | 0.88 |
| HVEAVYIDIAD [PITPNA_Y140] | 0.647 | 0.931 | 0.541 | 0.708 | 1.39 | 0.922 | 1.14 | 0.831 | 5.13 | 2.23 | 2.52 | 1.87 | 1.18 | 0.837 | 1.27 | 2.96 |
| FEPWVYSFSYE [PRKDC_Y647] | 0.592 | 0.767 | 0.705 | 1.22 | 1.43 | 1.3 | 6.53 | 0.861 | 0.655 | 1.35 | 0.759 | 5.83 | 1.36 | 2.94 | 0.654 | 1.03 |
| VSLEAYCKHKF [RXRA_Y403_A398V_YF] | 0.674 | 0.702 | 0.337 | 0.443 | 0.949 | 1.11 | 0.399 | 0.898 | 0.392 | 0.411 | 0.571 | 0.556 | 1.07 | 0.353 | 0.509 | 0.568 |
